This is an account of results in publication PMC6453957, “Specific inhibition of splicing factor activity by decoy RNA oligonucleotides”.

This series has as its target T1, RBFOX1 RRM (UniProt Q9NWB1 109-208).
T1 sequence: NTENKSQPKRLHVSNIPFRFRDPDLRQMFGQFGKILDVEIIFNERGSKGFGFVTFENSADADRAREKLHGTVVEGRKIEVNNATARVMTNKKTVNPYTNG
In words: NMR 1H-15N HSQC titration; 313 K; very large perturbations; switchSENSE titration: T100 (10 mM Tris-HCl pH 7.4, 100 mM NaCl, 0.05% Tween20), 37 C; sizing: T40 (same with 40 mM NaCl), 37 C; NMR: NMR buffer (RNA in T40), 313 K. The conditions noted are these: protein: recombinant; tags: N-terminal 6xHis; single strand.

Take UGCAUGU (ssRNA) [RBFOXi NMR RNA]: the binding result is “binds”.
